Test results: paper PMC7781310
pKd: −log10 of the molar value.

Target: sACE2_(2).v2.4-IgG1 (human) (UniProt Q9BYF1)
Assay: BLI

| Substance | pKd | koff |
| --- | --- | --- |
| SARS-CoV-2 RBD-8h N501Y (from UniProt P0DTC2 333-529) (domain or fragment) | > 10.00 |  |
| SARS-CoV-2 RBD-8h Y449K (from UniProt P0DTC2 333-529) (domain or fragment) |  | 0.004 s⁻¹ |
